Test results: patent publication US20220251214A1 (JN BIOSCIENCES, published 2022)

Assays:
[1] = molecular target: CD40 on the surface of Ramos cells (human, UniProt P25942 21-277); test: cell-based or functional assay
[2] = molecular target: CD33 on the surface of HL-60 cells (human, UniProt P20138 18-364); test: cell-based or functional assay
[3] = molecular target: T1, human OX40 on the cell surface (JD/OX40 cells; OX40-expressing T cells) (human, UniProt P43489 29-277); test: cell-based or functional assay
T1 sequence: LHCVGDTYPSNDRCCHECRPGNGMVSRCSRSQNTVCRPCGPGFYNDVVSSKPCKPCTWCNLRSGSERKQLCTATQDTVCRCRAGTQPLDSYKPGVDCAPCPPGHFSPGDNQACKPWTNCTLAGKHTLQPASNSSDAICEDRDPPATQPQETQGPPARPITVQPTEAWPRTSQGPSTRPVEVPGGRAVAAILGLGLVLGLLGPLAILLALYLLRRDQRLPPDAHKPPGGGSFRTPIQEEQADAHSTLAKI

[4] = molecular target: recombinant human CD33 on the surface of NS0/CD33 cells (CD33-FLAG-GPI) (human); test: cell-based or functional assay
Chain of recombinant human CD33 on the surface of NS0/CD33 cells (CD33-FLAG-GPI) (human) (chain, as listed by the source limits assumed): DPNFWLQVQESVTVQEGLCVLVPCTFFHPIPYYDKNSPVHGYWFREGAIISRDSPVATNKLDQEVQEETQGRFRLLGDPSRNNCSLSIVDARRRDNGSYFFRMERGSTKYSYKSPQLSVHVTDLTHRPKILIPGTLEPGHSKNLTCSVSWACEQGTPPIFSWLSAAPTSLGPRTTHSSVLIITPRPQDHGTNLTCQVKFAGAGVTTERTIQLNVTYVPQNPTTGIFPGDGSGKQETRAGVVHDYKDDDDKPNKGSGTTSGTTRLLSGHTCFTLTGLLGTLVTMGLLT

[5] = molecular target: T2, recombinant human PD-L1 on the surface of NS0/PD-L1 cells (PD-L1-FLAG-GPI) (human, UniProt Q9NZQ7 19-238); test: flow cytometry; blocking of the binding of FITC-labeled hPD-1-Fc to NS0/PD-L1 cells
T2 sequence (Q9NZQ7 other isoform, or with tags, fused parts or gaps limits assumed): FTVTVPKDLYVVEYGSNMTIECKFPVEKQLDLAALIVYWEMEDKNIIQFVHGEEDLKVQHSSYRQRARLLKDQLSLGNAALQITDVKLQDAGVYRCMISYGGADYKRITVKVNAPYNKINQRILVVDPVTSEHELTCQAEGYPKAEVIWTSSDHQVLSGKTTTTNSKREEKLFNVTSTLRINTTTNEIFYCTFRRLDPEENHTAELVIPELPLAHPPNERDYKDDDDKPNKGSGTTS
Text: After washing with and suspending in FACS Buffer, cells were subjected to flow cytometry analysis.

[6] = molecular target: human PD-L1 on PD-L1-expressing cells of human PBMC cultures (human, UniProt Q9NZQ7 19-290); test: cell-based or functional assay
Chain of human PD-L1 on PD-L1-expressing cells of human PBMC cultures (Q9NZQ7 19-290 limits assumed): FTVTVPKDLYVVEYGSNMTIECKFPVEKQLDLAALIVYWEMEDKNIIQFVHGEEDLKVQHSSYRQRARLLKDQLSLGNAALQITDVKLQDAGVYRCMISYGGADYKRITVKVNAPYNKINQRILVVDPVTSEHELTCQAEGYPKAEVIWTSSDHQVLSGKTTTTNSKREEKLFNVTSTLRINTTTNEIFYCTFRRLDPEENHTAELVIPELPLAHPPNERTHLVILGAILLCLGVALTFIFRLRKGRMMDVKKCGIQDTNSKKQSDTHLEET

[7] = molecular target: T3, human PD-L1 (human, UniProt Q9NZQ7 19-238, limits assumed); test: ELISA
T3 construct: also called B7H1; CD274
T3 sequence (Q9NZQ7 19-238 limits assumed): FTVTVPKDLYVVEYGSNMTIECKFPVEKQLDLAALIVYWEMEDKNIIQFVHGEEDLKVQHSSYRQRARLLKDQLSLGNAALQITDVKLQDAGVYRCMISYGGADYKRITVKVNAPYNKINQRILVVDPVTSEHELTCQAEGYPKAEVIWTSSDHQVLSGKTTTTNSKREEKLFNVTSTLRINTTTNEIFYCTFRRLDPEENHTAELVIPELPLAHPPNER

[8] = molecular target: T4, human GITR (human, UniProt Q9Y5U5 26-161, limits assumed); test: ELISA
T4 construct: also called TNFRSF18; CD357
T4 sequence: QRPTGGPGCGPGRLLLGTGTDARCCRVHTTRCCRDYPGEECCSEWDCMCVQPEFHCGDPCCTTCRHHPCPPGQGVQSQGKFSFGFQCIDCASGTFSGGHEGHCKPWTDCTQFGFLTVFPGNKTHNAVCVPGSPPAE

[9] = molecular target: T2, recombinant human PD-L1 on the surface …; test: cell-based or functional assay
[10] = molecular target: T5, human GITR on the cell surface (JD/GITR cells; GITR-expressing T cells) (human, UniProt Q9Y5U5 26-241); test: cell-based or functional assay
T5 sequence: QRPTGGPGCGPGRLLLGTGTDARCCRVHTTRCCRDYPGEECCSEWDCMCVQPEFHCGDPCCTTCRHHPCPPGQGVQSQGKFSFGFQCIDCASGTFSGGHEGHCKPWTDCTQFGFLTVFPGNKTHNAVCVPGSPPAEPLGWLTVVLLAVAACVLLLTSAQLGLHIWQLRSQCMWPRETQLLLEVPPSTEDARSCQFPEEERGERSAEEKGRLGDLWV

[11] = molecular target: T1, human OX40 on the cell surface (JD/OX40 …); test: flow cytometry on JD/OX40 cells

Chain of CD40 on the surface of Ramos cells (P25942 21-277 limits assumed): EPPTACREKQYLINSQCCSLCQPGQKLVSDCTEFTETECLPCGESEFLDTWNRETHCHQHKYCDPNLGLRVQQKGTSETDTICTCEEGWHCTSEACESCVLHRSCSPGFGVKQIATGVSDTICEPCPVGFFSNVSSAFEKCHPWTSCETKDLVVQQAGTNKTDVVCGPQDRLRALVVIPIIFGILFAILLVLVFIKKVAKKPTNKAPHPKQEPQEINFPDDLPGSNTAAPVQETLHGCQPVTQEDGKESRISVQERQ
Chain of CD33 on the surface of HL-60 cells (P20138 18-364 limits assumed): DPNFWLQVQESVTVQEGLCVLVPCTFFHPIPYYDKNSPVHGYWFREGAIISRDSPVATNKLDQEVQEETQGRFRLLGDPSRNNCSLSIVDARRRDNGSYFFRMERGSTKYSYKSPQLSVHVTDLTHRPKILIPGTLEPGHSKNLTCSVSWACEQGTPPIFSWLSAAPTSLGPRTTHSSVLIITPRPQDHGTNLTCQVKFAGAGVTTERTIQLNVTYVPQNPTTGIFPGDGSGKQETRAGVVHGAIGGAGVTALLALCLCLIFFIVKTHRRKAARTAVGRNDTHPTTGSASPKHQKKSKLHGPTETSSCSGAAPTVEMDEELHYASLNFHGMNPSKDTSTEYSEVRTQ

B1: BS828 (bispecific antibody, human IgG1, kappa, L234A L235A)
heavy: not shown
light: DIQMTQSPSSLSASVGDRVTITCRASESVDNYGISFMNWFQQKPGGAPKLLIYAASNQGSGVPSRFSGSGSGTDFTLTISSLQPDDFATYYCQQSKEVPWTFGQGTKVEIKRTVAAPSVFIFPPSDEQLKSGTASVVCLLNNFYPREAKVQWKVDNALQSGNSQESVTEQDSKDSTYSLSSTLTLSKADYEKHKVYACEVTHQGLSSPVTKSFNRGEC
- percentage of CD95-positive population among Ramos cells, 0.5 µg/ml antibody, in the presence of HL-60 cells [1]: 58.4%
- percentage of CD95-positive population among Ramos cells, 0.5 µg/ml antibody, in the presence of HL-60 cells [2]: 58.4%

B2: BS824 (bispecific antibody, human IgG1, kappa, L234A L235A)
heavy: not shown
light: DIQMTQSPSSLSASVGDRVTITCRASESVDNYGISFMNWFQQKPGGAPKLLIYAASNQGSGVPSRFSGSGSGTDFTLTISSLQPDDFATYYCQQSKEVPWTFGQGTKVEIKRTVAAPSVFIFPPSDEQLKSGTASVVCLLNNFYPREAKVQWKVDNALQSGNSQESVTEQDSKDSTYSLSSTLTLSKADYEKHKVYACEVTHQGLSSPVTKSFNRGEC
- average relative luciferase unit (RLU) in JD/OX40 cells, 1 µg/ml antibody, with NS0/CD33 cells [3]: 21700 RLU
- average relative luciferase unit (RLU) in JD/OX40 cells, 1 µg/ml antibody, with NS0/CD33 cells [4]: 21700 RLU

B3: HuACS2-IgG1.AA (antibody, V domains shown)
VH: QVQLVQSGAEVKKPGSSVKVSCKASGYTFTSYWLHWVRQAPGQGLEWIGRIDPNSGDTKYNEKFKSRATITVDKSTSTAYMELSSLRSEDTAVYYCARYYYGRSYFDYWGQGTTVTVSS
VL: IVLTQSPATLSLSPGERATLSCSASSSVSYMHWYQQKPGQAPRRWIYDTSKLASGVPARFSGSGSGTDYTLTISSLEPEDFAVYYCQQWSSNPLTFGGGTKVEIKR
- percentage of CD95-positive population among Ramos cells, 0.5 µg/ml antibody, in the presence of HL-60 cells [1]: 0.7%

B4: HuPRO5-IgG1.AA (antibody, V domains shown)
VH: QVQLQESGPGLVKPSQTLSLTCTVSGDSISSGYWNWIRQPPGKGLEYMGYISYTGSTYSNPSLKSRVTISRDTSKNQFSLKLSSVTAADTAVYYCARSQNWERAWFAYWGQGTLVTVSS
VL: DIQMTQSPSSLSASVGDRVTITCSASSSVSYMHWYQQKPGKAPKLWIYDTSKLASGVPSRFSGSGSGTDFTLTISSLQPEDFATYYCFQGSGYPFTFGGGTKVEIKR
notes: also called humanized PRO5; Anti-PD-L1 #5
- IC50 [5]: 0.087 µg/mL

B5: HuPRO2-IgG1.AA (antibody, V domains shown)
VH: VQLVQSGAEVKKPGSSVKVSCKASGYTFTSYGINWVRQAPGQGLEWIGYIYPGSGGPVYNQKFKGRVTLTADKSTSTAYMELSSLRSEDTAVYYCARENYRYWYFDVWGQGTTVTVSS
VL: DIQLTQSPSFLSASVGDRVTITCSASSSVNYMHWFQQKPGKAPKLWIYSTSNLASGVPSRFSGSGSGTEFTLTISSLQPEDFATYYCQQRSSYPLTFGGGTKVEIKR
notes: Humanized IgG1/kappa with L234A/L235A; also called humanized PRO2; Anti-PD-L1 #2
- IC50 [5]: 0.055 µg/mL

B6: BS841 (bispecific antibody, human IgG1, kappa, L234A L235A)
heavy: not shown
light: DIQLTQSPSFLSASVGDRVTITCSASSSVNYMHWFQQKPGKAPKLWIYSTSNLASGVPSRFSGSGSGTEFTLTISSLQPEDFATYYCQQRSSYPLTFGGGTKVEIKRTVAAPSVFIFPPSDEQLKSGTASVVCLLNNFYPREAKVQWKVDNALQSGNSQESVTEQDSKDSTYSLSSTLTLSKADYEKHKVYACEVTHQGLSSPVTKSFNRGEC
- average IL-2 concentration in human PBMC-derived T cells (PHA-L-treated, OKT3-coated plate), 1 µg/ml antibody [3]: 1700
- average IL-2 concentration, SEB-treated human PBMC, 1 µg/ml antibody [3]: 16.5 ng/mL
- average IL-2 concentration in human PBMC-derived T cells (PHA-L-treated, OKT3-coated plate), 1 µg/ml antibody [6]: 1700
- average IL-2 concentration, SEB-treated human PBMC, 1 µg/ml antibody [6]: 16.5 ng/mL

B7: BS853 (bispecific antibody, human IgG1, kappa, L234A L235A)
heavy: not shown
light: EIVLTQSPATLSLSPGERATLSCSASSSVSYMHWYQQKPGQAPRPWIYDTSNLASGFPARFSGSGSGTDFTLTISSLEPEDFAVYYCHQRSSYPWTFGGGTKVEIKRTVAAPSVFIFPPSDEQLKSGTASVVCLLNNFYPREAKVQWKVDNALQSGNSQESVTEQDSKDSTYSLSSTLTLSKADYEKHKVYACEVTHQGLSSPVTKSFNRGEC
notes: Transiently expressed in HEK293 cells; Cysteines at position 44 of VH and 100 of VL of the anti-GITR scFv; also called modified bispecific antibody encoded in pBS853; BS809 with disulfide-linked anti-GITR scFv
- binding result [7]: binds
- binding result [8]: binds

B8: BS813 (bispecific antibody, human IgG1, kappa, L234A L235A)
heavy: not shown
light: EIVLTQSPATLSLSPGERATLSCSASSSVSYMHWYQQKPGQAPRPWIYDTSNLASGFPARFSGSGSGTDFTLTISSLEPEDFAVYYCHQRSSYPWTFGGGTKVEIKRTVAAPSVFIFPPSDEQLKSGTASVVCLLNNFYPREAKVQWKVDNALQSGNSQESVTEQDSKDSTYSLSSTLTLSKADYEKHKVYACEVTHQGLSSPVTKSFNRGEC
- average IL-2 concentration in human PBMC-derived T cells (PHA-L-treated, OKT3-coated plate), 1 µg/ml antibody [3]: 2200
- average IL-2 concentration, SEB-treated human PBMC, 1 µg/ml antibody [3]: 17.7 ng/mL
- average relative luciferase unit (RLU) in JD/OX40 cells, 1 µg/ml antibody, with NS0/PD-L1 cells [3]: 23700 RLU
- average relative luciferase unit (RLU) in JD/OX40 cells, 1 µg/ml antibody, with NS0/PD-L1 cells [9]: 23700 RLU
- average IL-2 concentration in human PBMC-derived T cells (PHA-L-treated, OKT3-coated plate), 1 µg/ml antibody [6]: 2200
- average IL-2 concentration, SEB-treated human PBMC, 1 µg/ml antibody [6]: 17.7 ng/mL

B9: BS809 (bispecific antibody, human IgG1, kappa, L234A L235A)
heavy: not shown
light: EIVLTQSPATLSLSPGERATLSCSASSSVSYMHWYQQKPGQAPRPWIYDTSNLASGFPARFSGSGSGTDFTLTISSLEPEDFAVYYCHQRSSYPWTFGGGTKVEIKRTVAAPSVFIFPPSDEQLKSGTASVVCLLNNFYPREAKVQWKVDNALQSGNSQESVTEQDSKDSTYSLSSTLTLSKADYEKHKVYACEVTHQGLSSPVTKSFNRGEC
- average IL-2 concentration in PBMC-derived T cells of donor 4143, 1 µg/ml antibody [10]: 4200 pg/mL
- average relative luciferase unit (RLU) in the culture supernatants of JD/GITR cells, 1 µg/ml antibody, with NS0/PD-L1 cells [10]: 1.04e+06 RLU
- average relative luciferase unit (RLU) in the culture supernatants of JD/GITR cells, 1 µg/ml antibody, with NS0/PD-L1 cells [9]: 1.04e+06 RLU
- average IL-2 concentration in PBMC-derived T cells of donor 4143, 1 µg/ml antibody [6]: 4200 pg/mL

B10: HuOHX14DS-IgG1.AA (antibody, V domains shown)
VH: QVQLVQSGAEVKKPGSSVKVSCKASGYTFTSYIMHWVRQAPGQGLEWIGYINPYNSGTKYNEKFKGRVTITSDKSTSTAYMELSSLRSEDTAVYYCAHYYGSTFTMDYWGQGTTVTVSS
VL: DIQMTQSPSSLSASVGDRVTITCRASQDIRTYLNWYQQKPGKVPKLLIYYTSRLHSGVPSRFSGSGSGTDYTLTISSLQPEDVATYYCQQGNTLPWTFGGGTKVEIKR
- average relative luciferase unit (RLU) in JD/OX40 cells, 1 µg/ml antibody, with NS0/CD33 cells [3]: 8700 RLU
- average relative luciferase unit (RLU) in JD/OX40 cells, 1 µg/ml antibody, with NS0/PD-L1 cells [3]: 5920 RLU

B11: HuM195-IgG1 (antibody, V domains shown)
VH: QVQLVQSGAEVKKPGSSVKVSCKASGYTFTDYNMHWVRQAPGQGLEWIGYIYPYNGGTGYNQKFKSKATITADESTNTAYMELSSLRSEDTAVYYCARGRPAMDYWGQGTLVTVSS
VL: DIQMTQSPSSLSASVGDRVTITCRASESVDNYGISFMNWFQQKPGGAPKLLIYAASNQGSGVPSRFSGSGSGTDFTLTISSLQPDDFATYYCQQSKEVPWTFGQGTKVEIKR
notes: Humanized IgG1/kappa, wild-type CH2; also called humanized anti-CD33 IgG1/kappa antibody; anti-CD33
- binding result [11]: no binding

B12: HuPRO1-IgG1.AA (antibody, V domains shown)
VH: QVQLVQSGAEVKKPGSSVKVSCKASGFTFSSSYISWVRQAPGQGLEWIAWIYAGTGGTSYNQKFTGRATITVDESTSTAYMELSSLRSEDTAVYYCARHEGVYWYFDVWGQGTTVTVSS
VL: EIVLTQSPATLSLSPGERATLSCSASSSVSYMHWYQQKPGQAPRPWIYDTSNLASGFPARFSGSGSGTDFTLTISSLEPEDFAVYYCHQRSSYPWTFGGGTKVEIKR
notes: Humanized IgG1/kappa with L234A/L235A; Heavy chain built from VH and the constant exons of pHuM195-IgG1; also called humanized PRO1; anti-PD-L1
- average IL-2 concentration in PBMC-derived T cells of donor 4143, 1 µg/ml antibody [6]: 1450 pg/mL
- IC50 [5]: 0.106 µg/mL
